The text below walks through data of the RNAGym collection of RNA variant scans (doi:10.7554/elife.80360).

B1: CPEB3 Ribozyme (parent)
chain: GGGGGCCACAGCAGAAGCGUUCACGUCGCGGCCCCUGUCAGAUUCUGGUGAAUCUGCGAAUUCUGCUGU

Variants of B1 are the subject of this data set. The data set is described as follows: self-cleavage, relative activity (ratio to wild type); higher = more cleavage; co-transcriptional.
With GGGGUCCACAGCAGAAGCGUUCACGUCGCGGCCCCUGUCAGAUUCUGGUGAAUCUGCGAAUUCUUCUGU, the self-cleavage stood at 0.0885.

With GGGGUCCACAGCAGAAGCGUUCACGUCGCGGCCCCUGUCAGAUUCUGGUGAAUCUGCGAAUUCUACUGU, the self-cleavage came to 0.187. For GGGGUCCACAGCAGAAGCCUUCACGUCGCGGCCCCUGUCAGAUUCUGGUGAAUCUGCGAAUUCUGCUGU the value was 0.0535; for GGGGUCCACAGCAGAAGCUUUCACGUCGCGGCCCCUGUCAGAUUCUGGUGAAUCUGCGAAUUCUGCUGU, 0.0974; for GGGGUCCACAGCAGAAGCGUUCACGUCGCGGCCCCUGUCAGAUUUUGGUGAAUCUGCGAAUUCUGCUGU, 0.291. In the case of GGGGUCCACAGCAGAAGCGUUCACGUCGCGGCCCCUGUCAGAUUAUGGUGAAUCUGCGAAUUCUGCUGU it was 0.208; in that of GGGGUCCACAGCAGAAGCGUUCACGUCGCGGCCACUGUCAGAUUCUGGUGAAUCUGCGAAUUCUGCUGU, 0.0978. In the case of GGGGUCCACAGCAGAAGCGUUCACGUCGCGGCCGCUGUCAGAUUCUGGUGAAUCUGCGAAUUCUGCUGU it was 0.0508. As for GGGGUCCACAGCAGAAGCGUACACGUCGCGGCCCCUGUCAGAUUCUGGUGAAUCUGCGAAUUCUGCUGU, the self-cleavage turned out to be 0.158. GGGGUCCACAGCAGAAGCGUCCACGUCGCGGCCCCUGUCAGAUUCUGGUGAAUCUGCGAAUUCUGCUGU: the self-cleavage worked out at 0.119. In the case of GGGGUCCACAGCAGAAGCGUUCACGUCGCGACCCCUGUCAGAUUCUGGUGAAUCUGCGAAUUCUGCUGU, the self-cleavage was 0.132.

Take GGGGUCCACAGCAGAAGCGUUCACGUCGCGCCCCCUGUCAGAUUCUGGUGAAUCUGCGAAUUCUGCUGU: the self-cleavage was 0.0656. In the case of GGGGUCCACAGCAGAAGCGUUCACGUCGCGGUCCCUGUCAGAUUCUGGUGAAUCUGCGAAUUCUGCUGU it was 0.568; in that of GGGGUCCACAGCAGAAGCGUUCACGUCGCGGACCCUGUCAGAUUCUGGUGAAUCUGCGAAUUCUGCUGU, 0.953; in that of GGGGUCCACAGCAGAAGCGUUCACGUCGCGGGCCCUGUCAGAUUCUGGUGAAUCUGCGAAUUCUGCUGU, 0.815. In the case of GGGGUCCACAGCAGAAGCGUUCACAUCGCGGCCCCUGUCAGAUUCUGGUGAAUCUGCGAAUUCUGCUGU it was 0.0881; in that of GGGGUCCACAGCAGAAGCGUUCACCUCGCGGCCCCUGUCAGAUUCUGGUGAAUCUGCGAAUUCUGCUGU, 0.0917; in that of GGGGUCCACAGCAGAAGCGUUCACUUCGCGGCCCCUGUCAGAUUCUGGUGAAUCUGCGAAUUCUGCUGU, 0.0766. In the case of GGGGUCCACAGCAGAAGCGUUCACGUCGCGGCCCCUGCCAGAUUCUGGUGAAUCUGCGAAUUCUGCUGU it was 0.174; in that of GGGGUCCACAGCAAAAGCGUUCACGUCGCGGCCCCUGUCAGAUUCUGGUGAAUCUGCGAAUUCUGCUGU, 0.078. Regarding GGGGUCCACAGCAUAAGCGUUCACGUCGCGGCCCCUGUCAGAUUCUGGUGAAUCUGCGAAUUCUGCUGU, the self-cleavage was determined as 0.0546.

On to GGGGUCCACAGCAGAAGCGUUCACGUCGCGGCCCGUGUCAGAUUCUGGUGAAUCUGCGAAUUCUGCUGU, for which the self-cleavage turned out to be 0.08. Take GGGGUCCACAGCAGAAGCGUUCACGUCGCGGCCCCUGUCAGAUUCUGGUGAAUCUGCGAAUUCUGGUGU: the self-cleavage is 0.133. For GGGGUCCACAGCAGAAGCGUUCACGUCGCGGCCCCUGUCAGAUUCUGGUGAAUCUGCGAAUUCUGAUGU the value was 0.19; for GGGGUCCACAGCAGAAGCGUUCACGUCGCGGCCCCUGUCAGAUUCUGGUGAAUCUGCGAAUUCUGUUGU, 0.299; for GGGGUCCACAGCAGAAGCGUUCACGUCGCGGCCCCGGUCAGAUUCUGGUGAAUCUGCGAAUUCUGCUGU, 0.343. In the case of GGGGUCCACAGCAGAAGCGUUCACGUCGCGGCCCCAGUCAGAUUCUGGUGAAUCUGCGAAUUCUGCUGU it was 0.0704; in that of GGGGUCCACAGCAGAAGCGUUCACGUCGCGGCCCCUGUCAGAUUCUGUUGAAUCUGCGAAUUCUGCUGU, 0.332; in that of GGGGUCCACAGCAGAAGCGUUCACGUCGCGGCCCCUGUCAGAUUCUGCUGAAUCUGCGAAUUCUGCUGU, 0.327.

As to GGGGUCCACAGCAGAAGCGUUCACGUCGCGGCCCCUGUCAGAUUCUUGUGAAUCUGCGAAUUCUGCUGU, the self-cleavage was 0.296. In the case of GGGGUCCACAGCAGAAGCGUUCACGUCGCGGCCCCUGUCAGAUUCUAGUGAAUCUGCGAAUUCUGCUGU it was 0.294; in that of GGGGUCCACAGCAGAAGCGUUCACGUCGCGGCCCCUGUCAGAUUCUCGUGAAUCUGCGAAUUCUGCUGU, 0.277; in that of GGGGUCCACAGCAGAAGCGUUCACGUCGCGGCCCCUGUCACAUUCUGGUGAAUCUGCGAAUUCUGCUGU, 0.113. With GGGGUCCACAGCAGAAGCGUUCACGUCGCGGCCCCUGUCAUAUUCUGGUGAAUCUGCGAAUUCUGCUGU, the self-cleavage worked out at 0.0869. In the case of GGGGUCCACAGCAGAAGCGUUCACGUCGCGGCCCCUCUCAGAUUCUGGUGAAUCUGCGAAUUCUGCUGU it was 0.119; in that of GGGGUCCACAGCAGAAGCGUUCACGUCGCGGCCCCUUUCAGAUUCUGGUGAAUCUGCGAAUUCUGCUGU, 0.0584. For GGGGUCCACAGCAGAAGCGUUCACGUCGCGGCCCCUGUCAGAUACUGGUGAAUCUGCGAAUUCUGCUGU the value was 0.125. In the case of GGGGUCCACAGCAGAAGCGUUCACGUCGCGGCCCCUGUCAGAUCCUGGUGAAUCUGCGAAUUCUGCUGU it was 0.192; in that of GGGGUCCACAGCAGAAGCGUUCACGUCGCGGCCCCUGUCAGAUGCUGGUGAAUCUGCGAAUUCUGCUGU, 0.0852.
